# Where two headings read alike, the source gives them in different places.
# B1: eIF4G1 eIF4E-binding domain (4EBD) flanked by additional eIF4G1 sequence (amino acids 348-513) (domain or fragment)
# chain: EETEVAETEQSNIDESATTPAIPTKSDEAEAEVEAEAGDAGTKIGLEAEIETTTDETDDGTNTVSHILNVLKDATPIEDVFSFNYPEGIEGPDIKYKKEHVKYTYGPTFLLQFKDKLNVKADAEWVQSTASKIVIPPGMGRGNRSRDSGRFGNNSSRGHDFRNTSV
# B2: full-length eIF4G1 (natural protein)
# chain: MTDETAHPTQSASKQESAALKQTGDDQQESQQQRGYTNYNNGSNYTQKKPYNSNRPHQQRGGKFGPNRYNNRGNYNGGGSFRGGHMGANSSNVPWTGYYNNYPVYYQPQQMAAAGSAPANPIPVEEKSPVPTKIEITTKSGEHLDLKEQHKAKLQSQERSTVSPQPESKLKETSDSTSTSTPTPTPSTNDSKASSEENISEAEKTRRNFIEQVKLRKAALEKKRKEQLEGSSGNNNIPMKTTPENVEEKGSDKPEVTEKTKPAEEKSAEPEVKQETPAEEGEQGEKGQIKEESTPKVLTFAERLKLKKQQKEREEKTEGKENKEVPVQEETKSAIESAPVPPSEQVKEETEVAETEQSNIDESATTPAIPTKSDEAEAEVEAEAGDAGTKIGLEAEIETTTDETDDGTNTVSHILNVLKDATPIEDVFSFNYPEGIEGPDIKYKKEHVKYTYGPTFLLQFKDKLNVKADAEWVQSTASKIVIPPGMGRGNRSRDSGRFGNNSSRGHDFRNTSVRNMDDRANSRTSSKRRSKRMNDDRRSNRSYTSRRDRERGSYRNEEKREDDKPKEEVAPLVPSANRWVPKFKSKKTEKKLAPDGKTELLDKDEVERKMKSLLNKLTLEMFDAISSEILAIANISVWETNGETLKAVIEQIFLKACDEPHWSSMYAQLCGKVVKELNPDITDETNEGKTGPKLVLHYLVARCHAEFDKGWTDKLPTNEDGTPLEPEMMSEEYYAAASAKRRGLGLVRFIGFLYRLNLLTGKMMFECFRRLMKDLTDSPSEETLESVVELLNTVGEQFETDSFRTGQATLEGSQLLDSLFGILDNIIQTAKISSRIKFKLIDIKELRHDKNWNSDKKDNGPKTIQQIHEEEERQRQLKNNSRSNSRRTNNSSNRHSFRRDAPPASKDSFITTRTYSQRNSQRAPPPKEEPAAPTSTATNMFSALMGESDDEE
# Assays:
# [1] = target: eIF4G1 (Saccharomyces cerevisiae) (UniProt P39935); conditions: cited from earlier work
# [2] = target: Cy5-eIF4E(A124C) (S. cerevisiae) (UniProt P07260); experiment: single-molecule FRET
# [3] = target: Cy5-eIF4E(A124C) (S. cerevisiae) (UniProt P07260); experiment: single-molecule FRET; remark: listed apart in the source
Molecule,Kd [1] [nM],Kd [2] [nM],Kd [3] [nM]
eIF4E (from UniProt P07260),< 15,–,–
B1,–,25,20
B2,–,20,–
